Molecular target: E. coli β-clamp labeled with OregonGreen488 (E. coli β-clamp^OG) (E. coli), P0A988
Experiment: other fluorescence titration; OregonGreen488-labeled β-clamp (50 or 100 nM in the methods, 90 nM in the legend) titrated with the partner protein; 20 mM Tris-Cl pH 7.5, 8 mM MgCl2, 1 mM DTT, 0.2 mM EDTA, 50 mM NaCl, 0.5 mM ATP, 22°C; emission at 510 nm; apparent Kd
Details: remark: other sources report otherwise

E. coli β-clamp labeled with OregonGreen488 (E. coli β-clamp^OG) (E. coli), P0A988, sequence (P0A988 whole entry): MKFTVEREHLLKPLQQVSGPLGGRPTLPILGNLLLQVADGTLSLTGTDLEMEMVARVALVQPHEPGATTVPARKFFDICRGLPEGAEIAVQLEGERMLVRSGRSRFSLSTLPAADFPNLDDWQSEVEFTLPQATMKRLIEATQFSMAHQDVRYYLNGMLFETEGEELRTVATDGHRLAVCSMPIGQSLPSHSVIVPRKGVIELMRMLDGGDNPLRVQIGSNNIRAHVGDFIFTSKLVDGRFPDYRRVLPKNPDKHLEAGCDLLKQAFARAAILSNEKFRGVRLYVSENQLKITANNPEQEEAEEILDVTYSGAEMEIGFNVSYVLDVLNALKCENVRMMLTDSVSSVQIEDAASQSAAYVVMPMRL

B1: E. coli NAD+-dependent DNA ligase (E. coli LigA), P15042 1-671 (enzyme)
chain: MESIEQQLTELRTTLRHHEYLYHVMDAPEIPDAEYDRLMRELRELETKHPELITPDSPTQRVGAAPLAAFSQIRHEVPMLSLDNVFDEESFLAFNKRVQDRLKNNEKVTWCCELKLDGLAVSILYENGVLVSAATRGDGTTGEDITSNVRTIRAIPLKLHGENIPARLEVRGEVFLPQAGFEKINEDARRTGGKVFANPRNAAAGSLRQLDPRITAKRPLTFFCYGVGVLEGGELPDTHLGRLLQFKKWGLPVSDRVTLCESAEEVLAFYHKVEEDRPTLGFDIDGVVIKVNSLAQQEQLGFVARAPRWAVAFKFPAQEQMTFVRDVEFQVGRTGAITPVARLEPVHVAGVLVSNATLHNADEIERLGLRIGDKVVIRRAGDVIPQVVNVVLSERPEDTREVVFPTHCPVCGSDVERVEGEAVARCTGGLICGAQRKESLKHFVSRRAMDVDGMGDKIIDQLVEKEYVHTPADLFKLTAGKLTGLERMGPKSAQNVVNALEKAKETTFARFLYALGIREVGEATAAGLAAYFGTLEALEAASIEELQKVPDVGIVVASHVHNFFAEESNRNVISELLAEGVHWPAPIVINAEEIDSPFAGKTVVLTGSLSQMSRDDAKARLVELGAKVAGSVSKKTDLVIAGEAAGSKLAKAQELGIEVIDEAEMLRLLGS
modifications: here or on the partner: OregonGreen488 label (residue not stated)
  Kd: 42.5 nM
